Assay [1] has as its target interleukin 6 receptor gp 80 (soluble Human Recombinant IL-6R) (human) (UniProt P08887). The assay can be described thus: recovery of particles from balls coated with receptor, elution pH 3.6.
Assay [2] shares this target. In words: panning of a 1:1 mixture of 176 Arg and 179 Ala phasmids on receptor in solid phase, elution pH 3.6.
For assay [3] the target is unchanged. The assay can be described thus: receptor binding assay, format not described.
Assay [4] has the same target. In words: cell-based or functional assay.
Assay [5] shares this target. In words: panning of a 1:100 mixture with M13K07 on polystyrene balls coated with shrIL-6R, elution pH 3.6 (eluate 1:10).
For assay [6] the target is unchanged. In words: receptor binding assay, format not described; protein from bacterial periplasm.

Chain of UniProt P08887 (P08887 20-355 limits assumed): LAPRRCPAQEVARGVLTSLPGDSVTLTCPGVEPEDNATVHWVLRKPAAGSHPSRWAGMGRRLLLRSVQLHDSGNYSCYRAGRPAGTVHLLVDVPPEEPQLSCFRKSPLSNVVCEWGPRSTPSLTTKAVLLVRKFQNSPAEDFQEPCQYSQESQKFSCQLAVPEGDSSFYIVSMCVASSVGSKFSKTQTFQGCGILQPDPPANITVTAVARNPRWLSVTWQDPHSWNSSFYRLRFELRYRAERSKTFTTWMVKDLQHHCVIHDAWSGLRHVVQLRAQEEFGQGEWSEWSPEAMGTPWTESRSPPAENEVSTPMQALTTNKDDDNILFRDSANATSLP

Consider “176 Arg phasmid (hIL-6 mutant 176 Arg shown on phasmid) (from UniProt P05231 30-212)”, for which the particles recovered relative to phasmid hIL-6 in assay [1] worked out at 3 relative. For the same substance, the ratio of particles in the eluate against 179 Ala phasmid in assay [2] was 15 ratio (to 1).
As to “179 Ala phasmid (hIL-6 mutant 179 Ala shown on phasmid) (from UniProt P05231 29-212)”, in assay [1], the particles recovered relative to phasmid hIL-6 stood at 0.2 relative.
“IL-6 Ser118Arg/Val121Asp (from UniProt P05231 29-212) (ligand)”: in assay [3], the Receptor binding (% of wild type) was 66%.
With “IL-6 Tyr31Asp/Gly35Phe/Ser118Arg/Val121Asp (from UniProt P05231 29-212) (ligand)”, in assay [4], the 50% inhibition of interleukin 6 activity on hepatoma cells Hep3B (wild type IL-6 4 ng/ml) was found to be 164 ng/mL; the 50% inhibition of interleukin 6 activity on hepatoma cells HepG2 (wild type IL-6 4 ng/ml) worked out at 132 ng/mL; the 50% inhibition of interleukin 6 activity on myeloma cells XG-1 (wild type IL-6 0.1 ng/ml) is 190 ng/mL; the Inhibition of wild IL-6 (%) on human hepatoma cells (wild IL-6 4 ng/ml) at antagonist 16 ng/ml (4 X molar excess, 0.7 nM) is 23%. Besides, in assay [4], the Inhibition of wild IL-6 (%) on human hepatoma cells (wild IL-6 4 ng/ml) at antagonist 60 ng/ml (15 X molar excess, 2.7 nM) was found to be 28%; the Inhibition of wild IL-6 (%) on human hepatoma cells (wild IL-6 4 ng/ml) at antagonist 164 ng/ml (41 X molar excess, 7.5 nM) came out at 50%; the Inhibition of wild IL-6 (%) on human hepatoma cells (wild IL-6 4 ng/ml) at antagonist 500 ng/ml (125 X molar excess, 22.7 nM) is 75%; the Inhibition of wild IL-6 (%) on human hepatoma cells (wild IL-6 4 ng/ml) at antagonist 1000 ng/ml (250 X molar excess, 45.5 nM) came to 82%. Also, in assay [4], the Inhibition of wild IL-6 (%) on human hepatoma cells (wild IL-6 4 ng/ml) at antagonist 2000 ng/ml (500 X molar excess, 90.0 nM) came out at 90%; the Inhibition of wild IL-6 (%) on human hepatoma cells (wild IL-6 4 ng/ml) at antagonist 4000 ng/ml (1000 X molar excess, 181.8 nM) turned out to be 96%; the Inhibition of wild type interleukin 6 activity (growth of XG-1 human myeloma cells, wild type IL-6 0.1 ng/ml) at antagonist 3.3 ng/ml was determined as 6%; the Inhibition of wild type interleukin 6 activity (growth of XG-1 human myeloma cells, wild type IL-6 0.1 ng/ml) at antagonist 10 ng/ml worked out at 12%. Moreover, in assay [4], the Inhibition of wild type interleukin 6 activity (growth of XG-1 human myeloma cells, wild type IL-6 0.1 ng/ml) at antagonist 30 ng/ml worked out at 25%; the Inhibition of wild type interleukin 6 activity (growth of XG-1 human myeloma cells, wild type IL-6 0.1 ng/ml) at antagonist 90 ng/ml is 42%; the Inhibition of wild type interleukin 6 activity (growth of XG-1 human myeloma cells, wild type IL-6 0.1 ng/ml) at antagonist 270 ng/ml was found to be 64%; the Inhibition of wild type interleukin 6 activity (growth of XG-1 human myeloma cells, wild type IL-6 0.1 ng/ml) at antagonist 810 ng/ml was found to be 84%. For the same substance, in assay [4], the Inhibition of wild type interleukin 6 activity (growth of XG-1 human myeloma cells, wild type IL-6 0.1 ng/ml) at antagonist 2430 ng/ml came out at 90% and the Inhibition of wild type interleukin 6 activity (growth of XG-1 human myeloma cells, wild type IL-6 0.1 ng/ml) at antagonist 7290 ng/ml came to 93%. Further, in assay [3], the Receptor binding (% of wild type) was found to be 97% and the Receptor binding (% of wt) was found to be 97%.
Consider “IL-6 Tyr31Asp/Gly35Phe/Ser118Leu/Val121Asp (from UniProt P05231 29-212) (ligand)”, for which, in assay [4], the Inhibition of wild type interleukin 6 activity (growth of XG-1 human myeloma cells, wild type IL-6 0.1 ng/ml) at antagonist 3.3 ng/ml amounted to 0%; the Inhibition of wild type interleukin 6 activity (growth of XG-1 human myeloma cells, wild type IL-6 0.1 ng/ml) at antagonist 10 ng/ml worked out at 3%; the Inhibition of wild type interleukin 6 activity (growth of XG-1 human myeloma cells, wild type IL-6 0.1 ng/ml) at antagonist 30 ng/ml amounted to 10%; the Inhibition of wild type interleukin 6 activity (growth of XG-1 human myeloma cells, wild type IL-6 0.1 ng/ml) at antagonist 90 ng/ml stood at 31%. For the same substance, in assay [4], the Inhibition of wild type interleukin 6 activity (growth of XG-1 human myeloma cells, wild type IL-6 0.1 ng/ml) at antagonist 270 ng/ml amounted to 53%; the Inhibition of wild type interleukin 6 activity (growth of XG-1 human myeloma cells, wild type IL-6 0.1 ng/ml) at antagonist 810 ng/ml came to 71%; the Inhibition of wild type interleukin 6 activity (growth of XG-1 human myeloma cells, wild type IL-6 0.1 ng/ml) at antagonist 2430 ng/ml stood at 76%; the Inhibition of wild type interleukin 6 activity (growth of XG-1 human myeloma cells, wild type IL-6 0.1 ng/ml) at antagonist 7290 ng/ml is 81%. Further, the Receptor binding (% of wild type) in assay [3] was determined as 63%.
In the case of “IL-6 Tyr31Asp/Gly35Phe/Ser118Phe/Val121Asp (from UniProt P05231 29-212) (ligand)”, in assay [4], the Inhibition of wild type interleukin 6 activity (growth of XG-1 human myeloma cells, wild type IL-6 0.1 ng/ml) at antagonist 3.3 ng/ml stood at 0%; the Inhibition of wild type interleukin 6 activity (growth of XG-1 human myeloma cells, wild type IL-6 0.1 ng/ml) at antagonist 10 ng/ml worked out at 7%; the Inhibition of wild type interleukin 6 activity (growth of XG-1 human myeloma cells, wild type IL-6 0.1 ng/ml) at antagonist 30 ng/ml was 18%; the Inhibition of wild type interleukin 6 activity (growth of XG-1 human myeloma cells, wild type IL-6 0.1 ng/ml) at antagonist 90 ng/ml was determined as 35%. In assay [4], the Inhibition of wild type interleukin 6 activity (growth of XG-1 human myeloma cells, wild type IL-6 0.1 ng/ml) at antagonist 270 ng/ml was found to be 59%; the Inhibition of wild type interleukin 6 activity (growth of XG-1 human myeloma cells, wild type IL-6 0.1 ng/ml) at antagonist 810 ng/ml worked out at 84%; the Inhibition of wild type interleukin 6 activity (growth of XG-1 human myeloma cells, wild type IL-6 0.1 ng/ml) at antagonist 2430 ng/ml was determined as 90%; the Inhibition of wild type interleukin 6 activity (growth of XG-1 human myeloma cells, wild type IL-6 0.1 ng/ml) at antagonist 7290 ng/ml was 95%. Moreover, the Receptor binding (% of wild type) in assay [3] is 76%.
For M13K07 helper bacteriophage particles, in assay [1], the particles recovered relative to phasmid hIL-6 was 0.18 relative.
For “SAnt 1 (interleukin 6 Tyr31Asp/Gly35Phe/Ser118Arg/Val121Asp/Gln175Ile/Ser176Arg/Gln183Ala) (from UniProt P05231 29-212) (ligand)”, in assay [4], the 50% inhibition of interleukin 6 activity on hepatoma cells Hep3B (wild type IL-6 4 ng/ml) is 19 ng/mL, the 50% inhibition of interleukin 6 activity on hepatoma cells HepG2 (wild type IL-6 4 ng/ml) was found to be 32 ng/mL and the 50% inhibition of interleukin 6 activity on myeloma cells XG-1 (wild type IL-6 0.1 ng/ml) came to 22 ng/mL. Moreover, the Receptor binding (% of wt) in assay [3] came out at 406%.
With “hIL-6 phasmid (phage particle with hIL6-pIII fusion molecules) (from UniProt P05231 30-212)”, in assay [1], the particles recovered relative to phasmid hIL-6 was 1 relative. Further, the enrichment with respect to M13K07 in assay [5] worked out at 10 fold.
As for “interleukin 6 helix A and C mutant 31 Asp / 35 Phe / 118 Arg / 121 Val (from UniProt P05231 29-212) (ligand)”, the Receptor binding (% of wild type) in assay [3] came to 66%.
The same measure, in the same setting: with “interleukin 6 helix C mutant 118 Arg / 121 Val (from UniProt P05231 29-212) (ligand)” the figure was 81%; with “interleukin 6 helix C mutant 118 Leu / 121 Asp (from UniProt P05231 29-212) (ligand)”, 92%; with “interleukin 6 helix C mutant 118 Ser / 121 Asp (from UniProt P05231 29-212) (ligand)”, 78%.
Consider “interleukin 6 helix D mutant of phage 4-8 (181 Ile, 183 Asn) (from UniProt P05231 29-212) (ligand)”, for which the Receptor binding (%) in assay [6] was 100%.
As to “interleukin 6 helix D mutant of phage 5-3 (175 Ile, 181 Val, 183 His) (from UniProt P05231 29-212) (ligand)”, the Receptor binding (%) in assay [6] amounted to 80%.
The same measure, in the same setting: with “interleukin 6 helix D mutant of phage 5-4 (183 Tyr) (from UniProt P05231 29-212) (ligand)” the figure was 240%; with “interleukin 6 helix D mutant of phage 5-8 (183 Ala) (from UniProt P05231 29-212) (ligand)”, 240%.
On the same count and under the same terms, as for “interleukin 6 mutant Gln175Ile/Gln183Ala (phage 5-2) (from UniProt P05231 29-212) (ligand)”, the figure is 260%; as for “interleukin 6 mutant Gln175Ile/Ser176Arg/Gln183Ala (from UniProt P05231 29-212) (ligand)”, 450%.
As for “wild type human interleukin 6 (from UniProt P05231 30-212) (ligand)”, in assay [3], the Receptor binding (% of wild type) is 100%. The Receptor binding (%) in assay [6] stood at 100%.

(Values after patent EP0656117B1.)
